Measurements taken from paper PMC2430598, “Structural Analysis Reveals Conformational Plasticity in the Recognition of RNA 3′ Ends by the Human La Protein”.

Key:
LaNTD (La 1-194) [1] = target: T1, LaNTD (La 1-194) (Homo sapiens, UniProt P05455 1-194); test: EMSA; reference oligomer for relative Kd; EMSA: ~1 nM radiolabeled RNA, protocol of Jacks et al. 2003 (buffer, salt, pH, temperature not given); NMR: 15N-LaNTD, RNA:protein 0.2-1.5:1, NMR buffer not given; details: protein: recombinant; label: radiolabeled; single strand
T1 sequence: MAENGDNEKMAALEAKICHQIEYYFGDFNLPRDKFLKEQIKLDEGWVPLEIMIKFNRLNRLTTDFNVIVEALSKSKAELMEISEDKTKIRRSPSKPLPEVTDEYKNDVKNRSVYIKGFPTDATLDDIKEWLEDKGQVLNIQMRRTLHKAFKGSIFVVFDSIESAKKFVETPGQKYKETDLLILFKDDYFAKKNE

LaNTD (La 1-194) [2] = target: T1, LaNTD (La 1-194); test: EMSA; EMSA: ~1 nM radiolabeled RNA, protocol of Jacks et al. 2003 (buffer, salt, pH, temperature not given); NMR: 15N-LaNTD, RNA:protein 0.2-1.5:1, NMR buffer not given; details: protein: recombinant, single strand
LaNTD (La 4-194) [3] = target: T2, LaNTD (La 4-194) (Homo sapiens, UniProt P05455 4-194); test: X-ray crystallography; 2.1 A, C2; EMSA: ~1 nM radiolabeled RNA, protocol of Jacks et al. 2003 (buffer, salt, pH, temperature not given); NMR: 15N-LaNTD, RNA:protein 0.2-1.5:1, NMR buffer not given; details: protein: recombinant; tags: N-terminal 6xHis removed by thrombin; leaves Gly-Ser; single strand
T2 sequence: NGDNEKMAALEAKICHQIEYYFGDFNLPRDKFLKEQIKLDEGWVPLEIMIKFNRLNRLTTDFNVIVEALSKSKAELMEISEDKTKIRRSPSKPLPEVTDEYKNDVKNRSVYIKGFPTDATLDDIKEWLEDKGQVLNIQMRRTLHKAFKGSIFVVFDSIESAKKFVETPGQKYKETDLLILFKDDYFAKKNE

LaNTD (La 4-194) [4] = target: T2, LaNTD (La 4-194); test: X-ray crystallography; 1.8 A, P21212; only last two U modelled; EMSA: ~1 nM radiolabeled RNA, protocol of Jacks et al. 2003 (buffer, salt, pH, temperature not given); NMR: 15N-LaNTD, RNA:protein 0.2-1.5:1, NMR buffer not given; details: protein: recombinant; tags: N-terminal 6xHis removed by thrombin; leaves Gly-Ser; single strand
LaNTD (La 1-194) [5] = target: T1, LaNTD (La 1-194); test: NMR HSQC titration; split resonances, two states; EMSA: ~1 nM radiolabeled RNA, protocol of Jacks et al. 2003 (buffer, salt, pH, temperature not given); NMR: 15N-LaNTD, RNA:protein 0.2-1.5:1, NMR buffer not given; details: protein: recombinant; single strand
LaNTD (La 4-194) [6] = target: T2, LaNTD (La 4-194); test: X-ray crystallography; 2.8 A, C222; EMSA: ~1 nM radiolabeled RNA, protocol of Jacks et al. 2003 (buffer, salt, pH, temperature not given); NMR: 15N-LaNTD, RNA:protein 0.2-1.5:1, NMR buffer not given; details: protein: recombinant; tags: N-terminal 6xHis removed by thrombin; leaves Gly-Ser; single strand
LaNTD (La 1-194) [7] = target: T1, LaNTD (La 1-194); test: NMR HSQC titration and relaxation; EMSA: ~1 nM radiolabeled RNA, protocol of Jacks et al. 2003 (buffer, salt, pH, temperature not given); NMR: 15N-LaNTD, RNA:protein 0.2-1.5:1, NMR buffer not given; details: protein: recombinant; single strand
LaNTD (La 1-194) [8] = target: T1, LaNTD (La 1-194); test: NMR HSQC titration; EMSA: ~1 nM radiolabeled RNA, protocol of Jacks et al. 2003 (buffer, salt, pH, temperature not given); NMR: 15N-LaNTD, RNA:protein 0.2-1.5:1, NMR buffer not given; details: protein: recombinant; single strand

Q: With CACACAAUUU (ssRNA) as the binder, how does the Kd (LaNTD (La 1-194) [1]) read?
A: 30 nM

Q: For UUUUUUUUUU (ssRNA) [UUUUUUUUUU (U10)], which binding signal (LaNTD (La 1-194) [2]; (radiolabeled) in gel shift, unlabeled in NMR) is on record?
A: 1 ± 0.4 Kd relative to CACACAAUUU (30 nM)

Q: Does AUAAUUU (ssRNA) bind (LaNTD (La 4-194) [3])?
A: binds

Q: Does AUAUUUU (ssRNA) bind (LaNTD (La 4-194) [3])?
A: binds

Q: Does UUUUUUUU (ssRNA) [UUUUUUUU (U8)] bind (LaNTD (La 4-194) [4])?
A: binds

Q: What does the source list for AUUUU (ssRNA)?
A: binding result (LaNTD (La 1-194) [5]): binds; binding result (LaNTD (La 4-194) [6]): binds

Q: Does UUU (ssRNA) bind (LaNTD (La 1-194) [7])?
A: binds

Q: Does UUUU (ssRNA) bind (LaNTD (La 1-194) [7])?
A: binds

Q: Does UCUU (ssRNA) bind (LaNTD (La 1-194) [8])?
A: binds

Q: Which binding signal (LaNTD (La 1-194) [2]; label: radiolabeled) does the source give for CACACAUUUU (ssRNA) here?
A: 0.8 ± 0.3 Kd relative to CACACAAUUU (30 nM)

Q: ACACACUUUU (ssRNA) was tested. Which binding signal (LaNTD (La 1-194) [2]; label: radiolabeled) did it give?
A: 0.7 ± 0.2 Kd relative to CACACAAUUU (30 nM)

Q: For CACACACUUU (ssRNA), which binding signal (LaNTD (La 1-194) [2]; label: radiolabeled) is on record?
A: 1.2 ± 0.4 Kd relative to CACACAAUUU (30 nM)

Q: How did the binding signal (LaNTD (La 1-194) [2]; label: radiolabeled) turn out when CACACAUCUU (ssRNA) was run?
A: 1.4 ± 0.5 Kd relative to CACACAAUUU (30 nM)

Q: How did the binding signal (LaNTD (La 1-194) [2]; label: radiolabeled) turn out when CACACAUAUU (ssRNA) was run?
A: 1 ± 0.2 Kd relative to CACACAAUUU (30 nM)

Q: CACACAACUU (ssRNA) was tested. Which binding signal (LaNTD (La 1-194) [2]; label: radiolabeled) did it give?
A: 2 ± 0.8 Kd relative to CACACAAUUU (30 nM)

Q: For CACACACCUU (ssRNA), which binding signal (LaNTD (La 1-194) [2]; label: radiolabeled) is on record?
A: 2.4 ± 0.5 Kd relative to CACACAAUUU (30 nM)

Q: CACACAAAUU (ssRNA) was tested. Which binding signal (LaNTD (La 1-194) [2]; label: radiolabeled) did it give?
A: 2.8 ± 1.1 Kd relative to CACACAAUUU (30 nM)
